Laboratory results published in publication PMC4493018, “A Unique Human Norovirus Lineage with a Distinct HBGA Binding Interface” (PLoS Pathogens, 2015).

Legend:
OIF P particle = target: T1, OIF P particle (Norovirus NLV/IF1998/2003/Iraq, UniProt Q6B7R3); experiment: ELISA, oligosaccharide coated on plate; type: binding; conditions: P particles 10 μg/ml, coated synthetic oligosaccharide 2 μg/ml (polyvalent PAA conjugate in the blocking assay), 37 °C
T1 construct: P domain self-assembled to P particles of 830 kDa; GST fusion from E. coli BL21, GST cut off with thrombin

[1] = target: T2, OIF P domain (GII.21 OIF virus P dimer) (Norovirus NLV/IF1998/2003/Iraq, UniProt Q6B7R3); experiment: X-ray co-crystal structure, […] Å; conditions: co-crystallised without glycerol; 10 mM ligand; new HBGA site of B-, N- and T-loops; beta-Gal is major binding saccharide
T2 construct: P domain, residues 220-527, pGEX-6P-1 GST fusion in E. coli BL21(DE3), GST cut off with PreScission protease; dimer

[2] = target: P domain of the GII.21 OIF (Operation Iraqi Freedom) norovirus capsid protein VP1 (human norovirus GII.21 OIF virus); experiment: crystal structure
[3] = target: A antigen oligosaccharide; experiment: plate binding assay with coated oligosaccharides (OD450 read-out); conditions: P particles 10 μg/ml; oligosaccharides for plate coating at 2 μg/ml; parent: est. 0.04; read off a plot
Lea oligosaccharide = experiment: as above; conditions: P particles 10 μg/ml; oligosaccharides for plate coating at 2 μg/ml; parent: est. 0.85; read off a plot

In the case of CC(=O)N[C@H]1C(O)O[C@H](CO)[C@@H](O[C@@H]2O[C@@H](C)[C@@H](O)[C@@H](O)[C@@H]2O)[C@@H]1O[C@@H]1O[C@H](CO)[C@H](O)[C@H](O)[C@H]1O (stereo partly drawn) [Le^a trisaccharide, β-Gal-(1,3)-(α-Fuc-(1,4))- GlcNAc], the “ELISA, oligosaccharide coated on plate” value (OIF P particle) is reported as “wild type P particle of OIF virus that binds strongly to Le^a oligosaccharide” and the “X-ray co-crystal structure, 2.00 Å” value [1] is reported as “we co-crystallized the OIF P domain with Le^a trisaccharide”.

“P domain of the GII.21 OIF (Operation Iraqi Freedom) norovirus capsid protein VP1 (domain or fragment)” gave a stoichiometry N [2] of 2.

wild type P particle of OIF virus D294A showed a response [3] of 0.07 OD450 and a response (Lea oligosaccharide) of 0.32 OD450.

Compound wild type P particle of OIF virus E358A has a response [3] of 0.08 OD450.
